Values quoted from earlier work, collected in patent EP0314042A2, “Novel copolymers and superoxide dismutase modified with said copolymers” (KURARAY CO., LTD., priority 1987, dated 1989).

Assays:
[1] = as compared with SOD; cited from earlier work
[2] = result in words, relative to SOD; cited from earlier work

| Substance | enzymatic activity of SOD [1] | plasma half-life [2] |
| --- | --- | --- |
| Ficoll-modified SOD: SOD converted to a giant molecule through modification with Ficoll | markedly decreased | – |
| inulin-modified SOD: SOD modified with inulin (Japanese Kokai Tokkyo Koho No. 58-32826) | reduced | much prolonged |
| polyethylene glycol-modified-SOD: SOD converted to a giant molecule through modification with polyethylene glycol | markedly decreased | – |
